This note sets out measurements from US20260356960 (published 2026).

In one test the target is T1, sST2 recombinant (human).
T1 chain: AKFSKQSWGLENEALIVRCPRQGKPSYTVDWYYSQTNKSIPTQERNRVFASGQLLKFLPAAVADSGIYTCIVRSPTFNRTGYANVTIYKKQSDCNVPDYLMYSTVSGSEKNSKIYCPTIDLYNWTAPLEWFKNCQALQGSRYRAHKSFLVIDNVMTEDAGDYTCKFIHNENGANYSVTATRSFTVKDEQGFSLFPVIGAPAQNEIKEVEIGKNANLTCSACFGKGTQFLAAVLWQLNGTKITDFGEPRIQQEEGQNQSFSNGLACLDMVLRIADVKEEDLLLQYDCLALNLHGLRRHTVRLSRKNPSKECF
As to the kind of experiment: ELISA. For orientation: In an ELISA, binding on a coated surface is turned into a signal by an enzyme label.

The next test addresses T2, SKECF peptide (human, not fully specified).
T2 chain: SKECF
As to the kind of experiment: SPR.

Where no end group is shown, it is not given here.

B1: scFv-αsST2 (scFv 96-1) (antibody)
chain: MQVQLQQWGAGLLKPSETLSLTCAVYGGSFSGYYWSWIRQPPGKGLEWIGEINHSGSTNYNPSLKSRVTVSLDTSKNQFSLKLSSVTAADTAVYYCARGRGLVRFDSWGQGTTVTVSSGGGGSGGGGSGGGGSEIVLTQSPGTLSLSPGDRATLSCRASQFVGSSSVAWYQQRPGQAPRLLIYAAVSRASGIPDRFSGGGSGTDFTLTISRLEPEDSAVYYCLQYGSALYTFGQGTKLEIK
modifications: listing feature
The term Kd denotes the equilibrium constant for the complex coming apart. With B1, the Kd with sST2 recombinant turned out to be 23 µM.

B2: scFv-αsST2 (scFv 96-1) (antibody)
chain: MQVQLQQWGAGLLKPSETLSLTCAVYGGSFSGYYWSWIRQPPGKGLEWIGEINHSGSTNYNPSLKSRVTVSLDTSKNQFSLKLSSVTAADTAVYYCARGRGLVRFDSWGQGTTVTVSSGGGGSGGGGSGGGGSEIVLTQSPGTLSLSPGDRATLSCRASQFVGSSSVAWYQQRPGQAPRLLIYAAVSRASGIPDRFSGGGSGTDFTLTISRLEPEDSAVYYCLQYGSALYTFGQGTKLEIK
B2 yielded a Kd in the test with SKECF peptide of 1.71 µM.
